The results in this text go back to patent publication US10676765B2, “Methods for producing 3-hydroxy-3-methylbutyric acid” (Global Bioenergies, priority 2015, dated 2020).

What all share (type): biochemical
A short description of test [1]: Conversion of 3-methylcrotonyl-CoA and ADP into 3-methylcrotonic acid and ATP, phosphate butyryltransferase from Bacillus subtilis with butyrate kinases. The conditions noted are these: 4 mM 3-methylcrotonyl-CoA, 4 mM ADP, 0.2 mg/ml each enzyme, 20 min, 30° C. The protocol: (§1) The enzymatic assays were conducted in a total reaction volume of 0.2 ml.
(§2) The standard reaction mixture contained:
(§3) 50 mM potassium phosphate buffer pH 7.5
(§4) 4 mM 3-methylcrotonyl-CoA
(§5) 0.2 mg/ml of purified phosphate butyryltransferase from Bacillus subtilis
(§6) 0.2 mg/ml of purified butyrate kinase from Lactobacillus casei or Geobacillus sp.
(§7) Assays were then incubated for 20 min with shaking at 30° C.
After an incubation period, the reactions were stopped by heating the reaction medium 4 min at 90° C. The samples were centrifuged, filtered through a 0.22 μm filter and the clarified supernatants were transferred into a clean vial for further analysis. The consumption of ADP and 3-methylcrotonyl-CoA, and the formation of ATP, 3-methylcrotonic acid and free coenzyme A (CoA-SH) were followed by using HPLC-based methods.
HPLC analysis was performed using the 1260 Infinity LC System (Agilent) equipped with a column heating module and an RI detector. 2 μl of samples were separated on a Polaris C18-A column (150×4.6 mm, 5 μm particle size, column temp. 30° C.) with a mobile phase flow rate of 1.5 ml/min. The consumption of ADP and the formation of ATP were followed by HPLC analysis according to the methods described in Example 10.
HPLC analysis was performed using the 1260 Infinity LC System (Agilent) equipped with a column heating module and a UV detector (260 nm). […]

Test [2] can be described thus: Formation of 3-hydroxyisovaleryl phosphate from 3-hydroxyisovaleryl-CoA and phosphate (MS). The conditions noted are these: 10 mM 3-hydroxyisovaleryl-CoA, mass spectrometry. The protocol:
The studied enzymatic reaction was carried out under the following conditions:
10 mM 3-hydroxyisovaleryl-CoA (3-hydroxy-3-methylbutyryl-CoA)
The purified phosphate butyryltransferase from B. subtilis was resuspended in 5 mM potassium phosphate pH 7.5.
A control assay without enzyme was performed in parallel.
The enzymatic assay was initiated by the addition of 20 μl of enzyme preparation into 20 μl of reaction mixture. The formation of 3-hydroxyisovaleryl phosphate (3-hydroxy-3-methylbutyryl phosphate) was analyzed by Mass Spectrometry (MS). 5 μl of the assay was introduced into the mass spectrometer via a loop injection.
Flow injection analyses were performed using a Dionex Ultimate chromatographic system (Thermo Fisher Scientific) at a flow rate of 100 μL/min with a mobile phase composed of H2O containing 10 mM ammonium formate pH 9.45 and acetonitrile 75:25 v/v. Detection was performed with a Q-exactive spectrometer (Thermo Fisher Scientific) fitted with an electrospray ionization source (negative ionization mode at a resolution of 70000 m/Δm, FWHM at m/z 200). Non-resonant induced dissociation experiments—Higher-energy C-trap dissociation (HCD)—were acquired at normalized collision energy of 10%. Raw data were manually inspected using the Qualbrowser module of Xcalibur version 3.0 (Thermo Fisher Scientific). […]

Test [3] can be described thus: Conversion of 3-hydroxyisovaleryl-CoA and ADP into 3-hydroxyisovaleric acid and ATP, phosphate butyryltransferase from Bacillus subtilis with butyrate kinases. The conditions noted are these: 4 mM 3-hydroxyisovaleryl-CoA, 4 mM ADP, 0.2 mg/ml each enzyme, 20 min, 30° C. The protocol:
as §1, §2, §3
(§8) 4 mM 3-hydroxyisovaleryl-CoA
as §5, §6
A series of controls were performed in parallel (Assays C-H; Table 4).
(§9) The assays were then incubated for 20 min with shaking at 30° C.
After an incubation period, the reactions were stopped by heating the reaction medium 4 min at 90° C. The samples were centrifuged, filtered through a 0.22 μm filter and the clarified supernatants were transferred into a clean vial for further analysis. The consumption of ADP and 3-hydroxyisovaleryl-CoA, and the formation of ATP, 3-hydroxyisovaleric acid and free coenzyme A (CoA-SH) were followed by using HPLC-based methods.
HPLC analysis was performed using 1260 Infinity LC System (Agilent), equipped with column heating module and RI detector. 2 μl of samples were separated on Polaris C18-A column (150×4.6 mm, 5 μm particle size, column temp. 30° C.) with a mobile phase flow rate of 1.5 ml/min. The separation was performed using 8.4 mM sulfuric acid in H2O/MeOH mixed solution (99/1) (V/V). In these conditions, the retention time of ADP, ATP and 3-hydroxyisovaleric acid were 2.09 min, 2.26 min and 5.01 min, respectively. […]

Test [4] in a line: Conversion of 3-methylcrotonyl-CoA and ADP into 3-methylcrotonic acid and ATP, phosphate butyryltransferase from Enterococcus faecalis with butyrate kinases. The note with it: 4 mM 3-methylcrotonyl-CoA, 4 mM ADP, 0.2 mg/ml each enzyme, 20 min, 30° C. The protocol: as §1, §2, §3, §4
(§10) 0.2 mg/ml of purified phosphate butyryltransferase from Enterococcus faecalis
as §6
A series of controls was performed in parallel (Assays C-H Table 10).
as §7
After an incubation period, the reactions were stopped by heating the reaction medium 4 min at 90° C. The samples were centrifuged, filtered through a 0.22 μm filter and the clarified supernatants were transferred into a clean vial for further analysis. The consumption of ADP and 3-methylcrotonyl-CoA and the formation of ATP and 3-methylcrotonic acid and free coenzyme A (CoA-SH) were followed by HPLC analysis according to the methods described in Example 10 and Example 12.

Test [5] can be described thus: Conversion of 3-hydroxyisovaleryl-CoA and ADP into 3-hydroxyisovaleric acid and ATP, phosphate butyryltransferase from Enterococcus faecalis with butyrate kinases. The note with it: 4 mM 3-hydroxyisovaleryl-CoA, 4 mM ADP, 0.2 mg/ml each enzyme, 20 min, 30° C. The protocol:
as §1, §2, §3, §8, §10, §6
A series of controls were performed in parallel (Assays C-H Table 5).
as §9
After an incubation period, the reactions were stopped by heating the reaction medium 4 min at 90° C. The samples were centrifuged, filtered through a 0.22 μm filter and the clarified supernatants were transferred into a clean vial for further analysis. The consumption of ADP and 3-hydroxyisovaleryl-CoA, and the formation of ATP and 3-hydroxyisovaleric acid and free coenzyme A (CoA-SH) were followed by HPLC analysis according to the methods described in Example 10.

B1: phosphate butyryltransferase from Bacillus subtilis: phosphate butyryltransferase (EC 2.3.1.19) from Bacillus subtilis (strain 168), Uniprot P54530 (protein, listed as Bacillus subtilis)
chain: MKLKDLIGKASIHKNKTIAVAHAEDEEVIRAVKLAAEHLSARFLLTGDSKKLNELTSSMQGHQVEIVHANTPEESAKLAVRAVHHKTADVLMKGNVPTSVLLKAVLNRQEGLRSASVLSHVAVFDIPDFDRLMFVTDSAMNIAPSLEELRQILQNAVHVAHAVGNNMPKAAALAAVETVNPKMEATVNAAALAQMYKRGQIKGCIVDGPLALDNAVSQIAAAQKKISGDVAGNADILLVPTIEAGNILYKSLIYFAKASVAAVITGAKAPIALTSRADSAENKLYSIALAICASEEYTH
modifications: strain 168
notes: phosphate butyryltransferase (EC 2.3.1.19) from Bacillus subtilis (strain 168), Uniprot P54530
For the molecule B1, the “production of 3-methylcrotonic acid and ATP” value in test [1] is reported as “significant production of 3-methylcrotonic acid without a simultaneous generation of ATP”. The “generation of 3-hydroxyisovaleryl phosphate” value in test [2] is given as “generation of 3-hydroxyisovaleryl phosphate in the enzyme catalyzed assay was proved by MS technique”. The “production of 3-hydroxyisovaleric acid and ATP” value in test [3] was “significant production of 3-hydroxyisovaleric acid, without simultaneous generation of ATP”.

B2: phosphate butyryltransferase from Enterococcus faecalis: phosphate butyryltransferase (EC 2.3.1.19) from Enterococcus faecalis MTUP9, Uniprot A0A038BNC2 (protein, listed as Enterococcus faecalis)
chain: MITVSIAGGSQPEILQLVKKALKEAEQPLQFIVFDTNENLDTENLWKYVHCSDEATVAQEAVSLVATGQAQILLKGIIQTHTLLKEMLKSEHQLKNKPILSHVAMVELPAGKTFLLTDCAMNIAPTQATLIEIVENAKEVAQKLGLHHPKIALLSAAENFNPKMPSSVLAKEVTAHFNGQQEATVFGPLSLDLATSEEAVAHKRYSGPIMGDADILVVPTIDVGNCLYKSLTLFGHAKVGGTIVGTKVPVVLTSRSDSTESKFHSLRFAMRQV
modifications: MTUP9
notes: phosphate butyryltransferase (EC 2.3.1.19) from Enterococcus faecalis MTUP9, Uniprot A0A038BNC2
In the case of B2, the “production of 3-methylcrotonic acid and ATP” value in test [4] is listed as “significant production of 3-methylcrotonic acid without simultaneous generation of ATP”. In addition, the “production of 3-hydroxyisovaleric acid and ATP” value in test [5] is recorded as “significant production of 3-hydroxyisovaleric acid, without simultaneous generation of ATP”.
